The data set is described as follows: label from the status in PepcDB records.
On to “MSETATWQPSASIPNLLKRAAIMAEIRRFFADRGVLEVETPCMSQATVTDIHLFPFETRFVGPGHSQGINLYLMTSPEYHMKRLLAAGCGPVFQLCRSFRNEEMGRHHNPEFTMLEWYRPHYDMYRLMNEVDDLLQQVLDCQPAESLSYQQAFQRHLEIDPLSADKTQLREAAAKLDLSNIADTEEDRDTLLQLLFTMGVEPHIGKEKPTFIYHFPASQASLAQISTEDHRVAERFEVYYKGIELANGFHELTDAREQQQRFEQDNRKRAARGLPQQPIDQNLLDALAAGLPDCSGVALGVDRLVMLALGAESLADVIAFTVDRA”, for which the protein production result is “not failed”.

With “MIYRILIVISIFMISFSGFGQTDYFKLGKEYYNNGEYEKAAATYSEVIKKEENLPKVYETYLSTLYKLKNYTEAEKIIKKMVKVGSPENYTYRIDYALFYKQQNLTDKAEKEFSAFVSDIQKNSTAVDISGAYLQKLGEYTWAKQLYLQARKNFDRYAYCFELSSIYNRLGQTENMFDELLNYLSVNPASLEEVQNTFQNELDTDEKFALFETKVYDRINKDPNDIVYNQLLLWLNLQRKNFTKAFIQAKAIDKRNRQTGTTVLEVGNIALENKDYDAAGACFQYVSDNFKESFNYSIARRLLIQTREEQIKNTFPVDKQKIVGLISDYNQLLKENGRTAYTLESLRNMALLNAFYLDKRDTAVVILKSLIENPYTDNRLRGKAKIDLGDIYLLTGEPWESTLLYSQVEKDFKEDQLGHEAKLRNAELYYYKGEFVLAQEQLDVLKLATTREISNDAIQLSVFITENSGLDSTTDALKDYSAIQLLLFQRKYDEALQAANALLKQYPHHELTDDVYWLQATILRQTGKPTEALEMLKKISTGYADDLLGDDALFTSAQIFDYDLKNTEKAMQLYQDFLIQYTNSVYVTEARKRFRILRGDKI”, the protein production result is recorded as “failed”.

Regarding “MKKILVGIPNYNNAAYIVDTIESVLKQSYSGVDVVVFDNASTDDSVEIIENTFLNNPNVLLKKSASNVGPTMNHNRCLEYAIDNEYDYLKVLSSDDVLLPNIIQEQFELLESEPRGAFATCNMIVTDDKLTKIKDHDFLGSNTDGNAVIKKCASHSANYIGGPSNGLLRVSCIGATRFSPEYKWLSDLKFYCDLLANRPFINTGTNGFFYRRHDNTDSSHVSKIKNLQRKESIRFSGEYGGNFLTKIKIYLRDIKSRLLLEHHHHHH”, the protein production entry was “failed”.

As to “MNNLFVLLIIIALSVGSNNGSKLWPKNQLHFRNSFSRNYDVLTVHCKSKDDDLGIHTVARSYEYNFKFEDSVFGRTEFFCTLMHGVGSKYSVTFTAYKAKPAFVASTGVIKIWDALDDGIYLTDEDHDFVKIYGW”, the protein production result is recorded as “failed”.

For the sequence “MRLNQISKFAIVSVVVLVLALLLGGSAKTNLTVEEVNKALEPFFDSLSYILNYYYEADKLDINKLIDHAIDGLVKGTGDDFSYYQDPETYRENQIEMKGEYGGLGIEVTYDAEHGAIKVVAPMYGTPAWRAGLKAGDLIITIDGTPVSKMTYMEAVNNLRGEPGTSVTIEVLRDGEKLTFTIVREKIEIKMVLYSFIETEKGSIGYVRITRFGEKADSDMKNALDKIFEKGVKGLIIDVRDNPGGYLDVALKIVSMFVDKGVILKVRNGFGEEDVYESYGNSYPNVPIVLLVNEGSASASEILTGALKDLGIATVVGRKTFGKGSVQTGFPLSNGGVLFLTTAHYLTPSGKDIHKIGIEPDVLVEESVEEELHAETREQIEVDPEKDPFVKKGLEVLLEKIK”, the protein production entry is given as “failed”.

With “MIYYLIGVALFIFMLEQLVPGWKLPKVSTWVARVIFLNIVQVSIALLAGITWNKWMMGHSLLHTSDALPPLLAGFAAYFVNTFVTYWWHRARHANDTLWRLFHQLHHAPQRIEVFTSFYKHPTEMVFNSLLGSFVAYVVMGISIEAGAYYIMFAALGEMFYHSNLRTPHVLGYLFQRPEMHRIHHQRDRHECNYSDFPIWDMLFGTYENPRRIDEPQGFAGDKEQQFVDMLLFRDVHSLPGKTQPAPVLVKPDVR”, the protein production entry is recorded as “failed”.

For “MKKQEKGNEVVTFEENPSTYVHHHTKKASMVLSEQEIEVILQSNKETYNEKLEKNTKENAEKVGIEEGNGSSSKITPCIFYTSDEKARLRWSSDLHDCFVNAVEKLGGPNKATPKSVKEAMEVEGIALHHVKSHLQKFRLGKCNIRGGTNQYVRQSQSMPHKSQQQLQLNNDCVNHDSYCNATFLSVTVPPTIDSLHQDTLNNTILFPTTLQAIPTSVSHNTYMSSYPSYNTVEVVKAQLNALQDSSTSQTQETFSRETNLSSIVTRDEADPVDKYIDWNKVGETDIEHDSVEVLEALGLK”, the protein production result is “failed”.

In the case of “MSKVLVLKSSILAGYSQSNQLSDYFVEQWREKHSADEITVRDLAANPIPVLDGELVGALRPSDAPLTTRQQEALALSDELIAELKAHDVIVIAAPMYNFNISTQLKNYFDLVARAGVTFRYTENGPEGLVTGKKAIVITSRGGIHKDGPTDLVTPYLSTFLGFIGITDVKFVFAEGIAYGPEMAAKAQSDAKAAIDSIVAA”, the protein production entry is “failed”.

Take “MSAHPLAQLETFKHTSKQWNQLREAANMSNRMEHILQAMPSGVVILNGDGIVTDANPVAVELLEQSLCGARWIDVIHTAFAPQDDDGHEVSLRNGRRVKLAITPLTPEPGQLIVLTDLTETRLLQKNLSHLQRLSALGKMVATLAHQVRTPLSAALLYAANLASPKLSDSAKVKFQQKLVDRLNELERQVNDMLLMAKGRQDELGELINLNDVIENVVANCEPIVAKHGAELTVTNASNGLMLANVNALSSAVNNLVMNSLEAGATQIQLVANEIDDQLHLNVVDNGKGLDAKMQQRVLEPFFTTKAQGTGLGLAVVQSVVRNHGGQLQLNCMPNKGCTVSLTFPQAKSATVLPLEKSHV”: the protein production entry is given as “failed”.

Regarding “MTDQLQHIRKPPRTGKAARSGTQDEIVYAHIFDAILEQRLAPGTKLSEEALGEIFGVSRTIIRRALSRLAHEQVVLLRPNRGAVVASPSIDEARQILFARRTVERAITELATDNATAERLAEL”, the protein production entry was “failed”.

Take “MAAGTDSTGTFATRHSANECLQLQERLWLLEQIAGSASRTALRTTVARGNECRLASCIDLNPEGRPILPSCSALGRAGAAARCCAGRRGRSRARARPAGQTGGGSRVAAECRHISHRGGRGIPVSGGGGAWRSGGASNGRGVFLRPAGTGGSRLATGARQANLGCGPRPACPPAMDQDYERRLLRQIIIQNENTVPCVSEMRRTLTPANSPVSSPSKHGDRFIPSRAGANWSVNFHRINENEKSPSQNRKAKDATSDNGKDGLAYSALLKNELLGAGIEKVQDPQTEDRRLQPSTPEHKGLFTYSLSSKRSSPDDGNDVSPYSLSPVSNKSQKLLRSPRKPTRKISKIPFKVLDAPELQDDFYLNLVDWSSLNVLSVGLGTCVYLWSACTSQVTRLCDLSVEGDSVTSVGWSERGNLVAVGTHKGFVQIWDAAAGKKLSVLEGHTARVGALAWNADQLSSGSRDRMILQRDIRTPALQSERRLQGHRQEVCGLKWSTDHQLLASGGNDNKLLVWNHSSLSPVQQYTEHLAAVKAIAWSPHQHGLLASGGGTADRCIRFWNTLTGQPLQCIDTGSQVCNLAWSKHANELVSTHGYSQNQILVWKYPSLTQVAKLTGHSYRVLYLAMSPDGEAIVTGAGDETLRFWNVFSKTRSTKESVSVLNLFTRIR”: the protein production entry is reported as “failed”.

“MADNSATRVRVPSDRNSRRKIKGEVDIISSLPDVILQHILFSFQTKYAIRTSVLSKRWRHEADAINKALSQYTAPKMMNFHLKINKNNSLHHIKKWTEFAMSRNVENMSLDVRFRSNKIPRFYEINSSVKSLSHRLDLHDVIPRHGVSWTSLKKFSLSYCGLPDESAKILSGCPILEWPMQIVAPQIHCLKLRNTQLPCTLVDVSSLTEAEVLDIIIFPVNLSYNADFLHATMLEMLKKLKNVEKLTFSGSYLQNLSVAEKRGVPFPMFKVKALTLEMKHFVISDIERMLQSSPNLKKLTVRAKDNTGKYLYRYFARLESGSMLELKKGV”: the protein production entry is on record as “failed”.

The values are drawn from a protein production outcome set (Wang et al. 2014).
